From US20180194839A1 (Novartis, published 2018) come the findings set out here.

Positions count from the first letter of the chain named. Numbers in names are those of the source. Some results are limits rather than exact numbers.

In experiment [1] the target is T1, marmoset IL-17A (SEQ ID NO: 82) (marmoset monkey).
T1 construct: also called marmIL-17A
T1 chain: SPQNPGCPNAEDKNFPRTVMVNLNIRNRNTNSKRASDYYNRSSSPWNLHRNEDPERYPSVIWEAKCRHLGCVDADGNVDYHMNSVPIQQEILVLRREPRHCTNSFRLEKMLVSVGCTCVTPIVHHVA
Nature of the experiment: SPR (Biacore), captured antibody, antigen as analyte. For orientation: SPR reads the build-up and loss of mass on a sensor chip optically.

The target in experiment [2] is T2, recombinant human IL-17A/F heterodimer (human, UniProt Q16552 24-155; Q96PD4 31-163, limits assumed).
T2 construct: heterodimer of an IL-17A subunit and an IL-17F subunit; also called huIL-17A/F; rhuIL-17A/F
T2 sequence (looked up) 1: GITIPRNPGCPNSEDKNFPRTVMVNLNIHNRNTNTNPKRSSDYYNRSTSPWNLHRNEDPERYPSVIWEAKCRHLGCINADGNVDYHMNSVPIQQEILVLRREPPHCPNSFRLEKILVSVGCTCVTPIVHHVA
T2 sequence (looked up) 2: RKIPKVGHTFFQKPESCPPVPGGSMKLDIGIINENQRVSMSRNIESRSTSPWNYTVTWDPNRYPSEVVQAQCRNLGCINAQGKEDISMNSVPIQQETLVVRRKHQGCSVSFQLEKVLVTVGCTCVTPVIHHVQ
The experiment is described as above.

Experiment [3] has as its target T3, recombinant cynomolgus IL-17A (SEQ ID NO: 79) (cynomolgus monkey, UniProt Q16552 24-155 (human entry), limits assumed).
T3 construct: also called cynoIL-17A; cyno IL-17A
T3 chain: T2 sequence (looked up) 1 with T3A, P8S, N34S, I77V, N78K, P104R
The description is as above.

For experiment [4], the target named is T4, recombinant mouse IL-17A/F (R&D Systems Cat#5390-IL) (mouse, UniProt Q62386 26-158; Q7TNI7 29-161, limits assumed).
T4 construct: bought heterodimer; also called mIL-17A/F; rmIL-17A/F
T4 sequence (looked up) 1: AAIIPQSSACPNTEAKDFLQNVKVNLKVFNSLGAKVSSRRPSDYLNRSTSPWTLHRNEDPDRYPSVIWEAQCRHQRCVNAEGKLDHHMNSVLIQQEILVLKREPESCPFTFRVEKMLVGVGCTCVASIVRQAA
T4 sequence (looked up) 2: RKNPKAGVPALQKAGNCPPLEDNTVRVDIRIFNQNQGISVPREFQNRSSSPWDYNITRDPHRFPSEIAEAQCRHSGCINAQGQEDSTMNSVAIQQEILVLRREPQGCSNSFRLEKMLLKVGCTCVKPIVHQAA
The description is as above.

Experiment [5] concerns the target T5, recombinant rat IL-17A (SEQ ID NO: 85) (rat, UniProt Q61453 18-150).
T5 construct: also called rratIL-17A; rIL-17A
T5 sequence: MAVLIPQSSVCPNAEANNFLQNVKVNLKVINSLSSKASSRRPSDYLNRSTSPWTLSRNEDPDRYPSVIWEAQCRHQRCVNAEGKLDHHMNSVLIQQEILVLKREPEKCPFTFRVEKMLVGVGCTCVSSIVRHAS
Nature of the experiment: ELISA, coated antigen, Ab 1 µg/ml. Background: In an ELISA, binding on a coated surface is turned into a signal by an enzyme label.

In experiment [6] the target is T6, recombinant human IL-17F (SEQ ID NO: 77) (human, UniProt Q96PD4 31-163).
T6 construct: homodimer; also called huIL-17F; rhuIL-17F
T6 sequence: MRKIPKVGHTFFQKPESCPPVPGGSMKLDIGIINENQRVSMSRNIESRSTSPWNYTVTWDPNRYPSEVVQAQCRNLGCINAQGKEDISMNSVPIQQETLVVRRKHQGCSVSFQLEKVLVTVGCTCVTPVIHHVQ
Nature of the experiment: ELISA, coated antigen, Ab 1 µg/ml.

The target of experiment [7] is T3, recombinant cynomolgus IL-17A (SEQ ID …). Briefly: ELISA, coated antigen, Ab 1 µg/ml.
Experiment [8] concerns the target T7, recombinant cynomolgus IL-17F (SEQ ID NO: 80) (cynomolgus monkey, UniProt Q96PD4 31-163 (human entry), limits assumed).
T7 construct: also called cynoIL-17F; cyno IL-17F
T7 chain: T6 sequence with G23E, I30T, R74K, N75H, V101L, I130V
Nature of the experiment: ELISA, coated antigen, Ab 1 µg/ml.

B1: XAB4 (antibody, human IgG1, kappa, V domains shown)
VH: EVQLVESGGDLVQPGGSLRLSCAASGFTFSSYWMSWVRQAPGKGLEWVANIKQDGSEKYYVDSVKGRFTISRDNAKNSLYLQMNSLRAEDTAVYYCARDRGSLYYWGQGTLVTVSS
VL: AIQLTQSPSSLSASVGDRVTITCRPSQGINWELAWYQQKPGKAPKLLIYDASSLEQGVPSRFSGSGSGTDFTLTISSLQPEDFATYYCQQFNSYPLTFGGGTKVEIKR
notes: also called MB435 N56Q
As usually defined, the Kd is the constant that tells how readily two partners part at equilibrium. Consider B1, for which the Kd was 0.018 nM in experiment [1], < 0.011 nM in experiment [2], 0.031 nM in experiment [3] and 0.26 nM in experiment [4]. In addition, the O.D. worked out at 1.77 O.D in experiment [5], 0.049 O.D in experiment [6], 1.93 O.D in experiment [7] and 0.085 O.D in experiment [8].
